Assay results taken from patent publication US20130344069A1 (SORRENTO THERAPEUTICS, published 2013).

Legend:
[1] = molecular target: T1, IGF1R on MCF7 breast cancer cells (UniProt P08069 31-1367, limits assumed); assay: flow cytometry on MCF7 cells, PE goat anti-human IgG secondary, median FL2-H, non-linear regression fit, the concentration axis is LogM
T1 construct: whole, on cells; Endogenous receptor on MCF7 cells; also called MCF7 cells expressing IGF1R
Experimental: (§1) This example illustrates in vitro data for anti-IGF1R antibodies cellular binding EC₅₀ measurements. […] In this example, the experimental procedure is as follows: 50,000 MCF7 breast cancer cells were aliquoted into the wells of a 96-well, v-bottom plate in 100 μl FACS Buffer (PBS+2% FBS). Cells were spun down, washed 1× with FACS Buffer, and then resuspended in 25 μl of antibody solution in triplicate. After 0.5 hr incubation, cells were washed 1× with FACS Buffer and resuspended in 50 μl PE-conjugated, goat anti-human IgG (γ-chain specific) secondary antibody (Southern Biotech Cat #2040-09). Cells were further incubated for 0.5 hr and then washed 1× with FACS Buffer. Cells were resuspended in 25 μl FACS Buffer and the median fluorescence intensity in the FL2-H channel was determined using the Intellicyt HTFC flow cytometer.
(§2) While these values range over orders of magnitude, all antibodies show strong, specific binding to MCF7 cells expressing IGF1R. Data was collected on the Intellicyt HTFC flow cytometer, processed using FlowJo software, and analyzed and plotted in Graph Pad Prizm using non-linear regression fit. Data points are shown as the median fluorescence intensity (MFI) of positively labeled cells +/− Std Error.

Insulin Receptor = Insulin Receptor (UniProt P06213-2 28-944, limits assumed); assay: ELISA, one condition
Chain of Insulin Receptor (P06213 other isoform, or with tags, fused parts or gaps limits assumed): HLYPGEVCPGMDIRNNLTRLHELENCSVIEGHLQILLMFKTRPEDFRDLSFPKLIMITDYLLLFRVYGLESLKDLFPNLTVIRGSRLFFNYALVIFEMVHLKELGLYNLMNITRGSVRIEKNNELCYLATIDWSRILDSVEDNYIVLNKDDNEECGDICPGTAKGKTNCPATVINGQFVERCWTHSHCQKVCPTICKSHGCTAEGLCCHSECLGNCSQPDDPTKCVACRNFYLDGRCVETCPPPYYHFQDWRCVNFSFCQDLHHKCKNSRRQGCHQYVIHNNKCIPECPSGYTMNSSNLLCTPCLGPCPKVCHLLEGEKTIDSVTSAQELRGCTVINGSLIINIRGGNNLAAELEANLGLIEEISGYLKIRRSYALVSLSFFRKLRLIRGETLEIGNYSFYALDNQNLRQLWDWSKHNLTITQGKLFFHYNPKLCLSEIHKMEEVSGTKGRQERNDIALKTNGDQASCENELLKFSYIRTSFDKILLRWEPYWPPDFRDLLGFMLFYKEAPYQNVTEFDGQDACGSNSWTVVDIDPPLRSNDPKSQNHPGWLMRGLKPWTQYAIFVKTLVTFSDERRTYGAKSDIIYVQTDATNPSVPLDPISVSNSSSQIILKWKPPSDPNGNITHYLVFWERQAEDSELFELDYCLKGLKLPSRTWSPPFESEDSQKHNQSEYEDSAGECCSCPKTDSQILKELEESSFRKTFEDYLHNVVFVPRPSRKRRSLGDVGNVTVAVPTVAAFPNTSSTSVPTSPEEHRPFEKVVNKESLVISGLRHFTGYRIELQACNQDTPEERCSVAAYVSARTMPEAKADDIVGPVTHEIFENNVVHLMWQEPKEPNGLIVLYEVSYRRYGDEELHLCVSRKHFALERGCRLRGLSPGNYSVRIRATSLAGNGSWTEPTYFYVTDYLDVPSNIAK

[2] = molecular target: T1, IGF1R on MCF7 breast cancer cells; assay: flow cytometry, binding to MCF7 cells, PE anti-human IgG detection
Experimental: as §1, §2

[3] = molecular target: T1, IGF1R on MCF7 breast cancer cells; assay: cell-based or functional assay
rhIGF1R = molecular target: T2, rhIGF1R (human, UniProt P08069 31-932, limits assumed); assay: BLI, Forte Bio Octet Red; B9 on anti-hIgG Fc capture sensor
T2 construct: Recombinant protein used in the Octet measurements; also called recombinant human IGF1R
T2 sequence (P08069 31-932 limits assumed): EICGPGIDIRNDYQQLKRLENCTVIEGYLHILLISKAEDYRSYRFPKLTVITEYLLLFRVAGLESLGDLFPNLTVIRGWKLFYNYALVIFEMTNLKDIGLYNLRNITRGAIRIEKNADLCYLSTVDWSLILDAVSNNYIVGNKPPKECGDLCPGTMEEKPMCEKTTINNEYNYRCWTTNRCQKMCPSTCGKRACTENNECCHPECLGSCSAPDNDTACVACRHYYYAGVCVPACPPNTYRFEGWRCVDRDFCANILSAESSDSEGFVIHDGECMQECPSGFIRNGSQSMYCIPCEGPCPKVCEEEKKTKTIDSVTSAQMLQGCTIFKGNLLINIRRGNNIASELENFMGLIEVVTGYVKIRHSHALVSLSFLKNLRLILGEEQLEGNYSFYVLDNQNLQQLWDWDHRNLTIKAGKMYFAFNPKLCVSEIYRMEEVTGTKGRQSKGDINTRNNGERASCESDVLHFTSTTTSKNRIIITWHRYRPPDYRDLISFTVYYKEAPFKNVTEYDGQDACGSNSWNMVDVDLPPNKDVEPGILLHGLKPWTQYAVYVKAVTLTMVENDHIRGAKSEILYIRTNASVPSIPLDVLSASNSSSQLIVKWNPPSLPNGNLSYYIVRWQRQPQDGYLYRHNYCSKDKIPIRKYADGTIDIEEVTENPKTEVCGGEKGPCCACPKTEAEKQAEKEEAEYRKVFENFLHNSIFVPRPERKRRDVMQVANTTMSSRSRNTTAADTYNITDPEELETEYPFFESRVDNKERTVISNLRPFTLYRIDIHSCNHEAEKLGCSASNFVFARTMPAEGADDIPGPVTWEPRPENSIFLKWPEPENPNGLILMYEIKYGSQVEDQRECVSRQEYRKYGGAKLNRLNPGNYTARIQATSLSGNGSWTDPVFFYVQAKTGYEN

T1 sequence (P08069 31-1367 limits assumed): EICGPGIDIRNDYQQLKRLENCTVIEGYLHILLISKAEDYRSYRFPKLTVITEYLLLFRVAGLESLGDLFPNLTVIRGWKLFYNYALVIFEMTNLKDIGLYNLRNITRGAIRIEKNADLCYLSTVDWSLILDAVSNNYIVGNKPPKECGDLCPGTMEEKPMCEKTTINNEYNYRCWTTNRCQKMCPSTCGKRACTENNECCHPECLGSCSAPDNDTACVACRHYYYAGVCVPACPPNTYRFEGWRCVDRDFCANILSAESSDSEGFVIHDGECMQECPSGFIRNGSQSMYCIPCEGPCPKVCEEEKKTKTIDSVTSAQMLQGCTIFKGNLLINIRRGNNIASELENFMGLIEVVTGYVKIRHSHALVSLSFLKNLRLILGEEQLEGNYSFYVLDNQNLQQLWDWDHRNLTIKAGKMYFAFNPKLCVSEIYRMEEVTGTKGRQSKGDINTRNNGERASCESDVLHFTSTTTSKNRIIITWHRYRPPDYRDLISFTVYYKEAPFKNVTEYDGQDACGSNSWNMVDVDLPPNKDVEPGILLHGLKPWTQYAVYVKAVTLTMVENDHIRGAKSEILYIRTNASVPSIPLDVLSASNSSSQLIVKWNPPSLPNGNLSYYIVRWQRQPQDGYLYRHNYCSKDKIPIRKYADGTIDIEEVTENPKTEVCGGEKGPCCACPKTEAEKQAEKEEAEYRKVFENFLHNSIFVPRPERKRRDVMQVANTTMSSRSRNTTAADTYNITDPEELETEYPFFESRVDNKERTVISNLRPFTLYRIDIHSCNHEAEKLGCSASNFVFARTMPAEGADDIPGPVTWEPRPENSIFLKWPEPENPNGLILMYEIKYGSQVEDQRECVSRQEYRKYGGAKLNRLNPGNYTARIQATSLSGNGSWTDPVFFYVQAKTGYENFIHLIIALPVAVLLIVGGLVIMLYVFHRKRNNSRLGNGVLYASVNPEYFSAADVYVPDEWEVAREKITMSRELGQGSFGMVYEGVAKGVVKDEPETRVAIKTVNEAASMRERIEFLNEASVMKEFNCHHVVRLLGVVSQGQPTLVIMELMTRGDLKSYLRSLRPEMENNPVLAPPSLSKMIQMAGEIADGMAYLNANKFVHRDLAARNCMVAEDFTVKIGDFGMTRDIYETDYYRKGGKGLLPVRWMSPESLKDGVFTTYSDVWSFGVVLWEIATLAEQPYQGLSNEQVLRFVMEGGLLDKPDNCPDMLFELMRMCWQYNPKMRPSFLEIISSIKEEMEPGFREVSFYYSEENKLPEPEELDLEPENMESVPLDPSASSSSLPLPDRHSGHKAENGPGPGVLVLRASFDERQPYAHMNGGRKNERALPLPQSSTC

Binder	EC50 [1]	binding result (Insulin Receptor)	EC50 [2]	IC50 of inhibition of IGF1-stimulated IGF1R auto-phosphorylation in MCF7 cells [3]	Kd (rhIGF1R)
anti-IGF1R antibody C8 (antibody, V domains shown, Fully human antibody of an IgG class; also called clone C8) VH: QVQLVQSGAEVKKPGSSVKVSCKASGGSFNSFSISWVRQAPGQGLEWMGGITPMFGIGDNAQKFQDRVAITADESMSTFYMELSNLRFEDTAMYFCAREVGGLGFDVWGQGTTVTVSS VL: VIWMTQSPSSLSASVGDRVTFTCQASQHISKYLNWYQQKPGKAPKLLIYDASNLETGVPSRFSGSGSATDFTLTISSLQPEDFATYYCQQSYLTSYTFGQGTKVDIK	16.1 nM	no binding (tested: not given)			
anti-IGF1R antibody B10 (antibody, V domains shown, Fully human antibody of an IgG class; also called clone B10) VH: QVQLVQSGAEVKKPGASVKVSCKGSGYNFPTQAIHWVRQAPGQRLEWMGWTNTANGNAKYSQKFQGRVTITRDTYASTDYMELSSLTSEDTAIYYCTRDRFTGSGTYGMDVWGQGTTVTVSS VL: SYELMQPSSVSVSPGQTARITCSGDLLTRRYARWFQQKPGQAPLLIIYRDTVRPSGIPERFSASSSGATITLTISGAQLEDEADYYCYSATDNNVVFGGGTKLTVL	5.83 nM	no binding (tested: not given)			
anti-IGF1R antibody A6 (antibody, V domains shown, also called clone A6) VH: QVQLVQSGAEVMKPGASVKVSCKASGYTFTSYGISWVRQAPGQGLEWMGWISAYNGNTNYAQMLQGRVTMTTDTSTSTAYMELRSLRSDDTAVYYCARRGLSSYYYGMDVWGQGTTVTVSS VL: QPVLTQPPSVSAAPGQKVTISCSGGTSNVANNYVSWYQQLPGTAPKLLIYGNSNRPSGVPDRFSGSKSGTSASLAITGLQAEDEADYYCQSYDTSLSGYVFGSGTKVTVL	0.705 nM				
anti-IGF1R antibody B9 (antibody, V domains shown, Fully human antibody of an IgG class (captured on an anti-hIgG Fc sensor, detected with anti-human IgG); also called clone B9) VH: EVQLLESGGGLVQPGGSLRLSCAASGFTFSSYEMNWVRQAPGKGLEWVSYISTGDSTRSYADSVRGRFTISRDNAKNSLYLQMNSLRAEDTAVYYCARESGTWYGGWYFDLWGRGTLVTVSS VL: QSVVTQPPSVSAAPGQKVTISCAGSTSNIGNNFVSWYQQLPGTAPKLLIYDNNKRPSEIPDRFSGSKSGTSATLGITGLQTGDEADYYCVTWDSSLSVVLFGGGTKVTVL	0.0374 nM	no binding (tested: not given)	0.0037 nM	0.094 nM	1.25 nM
